In patent publication US20220298218A1 (ANTAG THERAPEUTICS, published 2022):
Where no end group is shown, it is not given here. [ ]: non-standard residue; d: D form. The star is where a group is joined. C16 diacid = O=C(O)CCCCCCCCCCCCCCC(=O)*; Nle = CCCC[C@H](N)C(=O)O; Aib = CC(C)(N)C(=O)O

T1: human GIP receptor (human, UniProt P48546 22-466)
T1 sequence (looked up): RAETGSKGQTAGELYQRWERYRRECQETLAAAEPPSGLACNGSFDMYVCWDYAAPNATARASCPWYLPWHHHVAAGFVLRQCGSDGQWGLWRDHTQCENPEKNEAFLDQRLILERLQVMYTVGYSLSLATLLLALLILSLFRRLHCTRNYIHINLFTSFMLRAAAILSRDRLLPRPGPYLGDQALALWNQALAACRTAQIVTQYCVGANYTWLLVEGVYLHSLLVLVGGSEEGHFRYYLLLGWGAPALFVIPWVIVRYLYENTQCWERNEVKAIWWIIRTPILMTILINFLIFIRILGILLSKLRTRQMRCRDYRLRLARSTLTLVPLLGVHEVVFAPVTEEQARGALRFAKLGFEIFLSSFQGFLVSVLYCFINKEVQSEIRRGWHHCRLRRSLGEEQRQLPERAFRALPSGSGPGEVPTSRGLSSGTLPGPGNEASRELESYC


These binders were tested against T1, human GIP receptor (assay: cell-based or functional assay).

Row | Binder | cAMP agonism % Emax [%] | cAMP antagonism [nM] | cAMP antagonism % inhib [%] | cAMP antagonism pIC50
1 | EGTFISDYSIAMDKIK(C16 diacid)QQDFVEWLLAQKPSSGAPPPS-OH (N-terminus assumed; SMILES CC[C@H](C)[C@H](NC(=O)[C@H](CO)NC(=O)[C@H](Cc1ccc(O)cc1)NC(=O)[C@H](CC(=O)O)NC(=O)[C@H](CO)NC(=O)[C@@H](NC(=O)[C@H](Cc1ccccc1)NC(=O)[C@@H](NC(=O)CNC(=O)[C@@H](N)CCC(=O)O)[C@@H](C)O)[C@@H](C)CC)C(=O)N[C@@H](C)C(=O)N[C@@H](CCSC)C(=O)N[C@@H](CC(=O)O)C(=O)N[C@@H](CCCCN)C(=O)N[C@H](C(=O)N[C@@H](CCCCNC(=O)CCCCCCCCCCCCCCC(=O)O)C(=O)N[C@@H](CCC(N)=O)C(=O)N[C@@H](CCC(N)=O)C(=O)N[C@@H](CC(=O)O)C(=O)N[C@@H](Cc1ccccc1)C(=O)N[C@H](C(=O)N[C@@H](CCC(=O)O)C(=O)N[C@@H](Cc1c[nH]c2ccccc12)C(=O)N[C@@H](CC(C)C)C(=O)N[C@@H](CC(C)C)C(=O)N[C@@H](C)C(=O)N[C@@H](CCC(N)=O)C(=O)N[C@@H](CCCCN)C(=O)N1CCC[C@H]1C(=O)N[C@@H](CO)C(=O)N[C@@H](CO)C(=O)NCC(=O)N[C@@H](C)C(=O)N1CCC[C@H]1C(=O)N1CCC[C@H]1C(=O)N1CCC[C@H]1C(=O)N[C@@H](CO)C(=O)O)C(C)C)[C@@H](C)CC) [AT617] | 0 | 0.794 | 91 | 9.1
2 | EGTFISEYS[Aib]A[Nle]EKIK(C16 diacid)QQDFVEWLLAQKPSSGAPPPS-OH (N-terminus assumed; SMILES CCCC[C@H](NC(=O)[C@H](C)NC(=O)C(C)(C)NC(=O)[C@H](CO)NC(=O)[C@H](Cc1ccc(O)cc1)NC(=O)[C@H](CCC(=O)O)NC(=O)[C@H](CO)NC(=O)[C@@H](NC(=O)[C@H](Cc1ccccc1)NC(=O)[C@@H](NC(=O)CNC(=O)[C@@H](N)CCC(=O)O)[C@@H](C)O)[C@@H](C)CC)C(=O)N[C@@H](CCC(=O)O)C(=O)N[C@@H](CCCCN)C(=O)N[C@H](C(=O)N[C@@H](CCCCNC(=O)CCCCCCCCCCCCCCC(=O)O)C(=O)N[C@@H](CCC(N)=O)C(=O)N[C@@H](CCC(N)=O)C(=O)N[C@@H](CC(=O)O)C(=O)N[C@@H](Cc1ccccc1)C(=O)N[C@H](C(=O)N[C@@H](CCC(=O)O)C(=O)N[C@@H](Cc1c[nH]c2ccccc12)C(=O)N[C@@H](CC(C)C)C(=O)N[C@@H](CC(C)C)C(=O)N[C@@H](C)C(=O)N[C@@H](CCC(N)=O)C(=O)N[C@@H](CCCCN)C(=O)N1CCC[C@H]1C(=O)N[C@@H](CO)C(=O)N[C@@H](CO)C(=O)NCC(=O)N[C@@H](C)C(=O)N1CCC[C@H]1C(=O)N1CCC[C@H]1C(=O)N1CCC[C@H]1C(=O)N[C@@H](CO)C(=O)O)C(C)C)[C@@H](C)CC) [AT615] | 0 | 7.94 | 97 | 8.1
3 | EGTFISDYSIAEDKIK(C16 diacid)QQDFVNWLLAQKPSSGAPPPS-OH (N-terminus assumed; SMILES CC[C@H](C)[C@H](NC(=O)[C@H](CO)NC(=O)[C@H](Cc1ccc(O)cc1)NC(=O)[C@H](CC(=O)O)NC(=O)[C@H](CO)NC(=O)[C@@H](NC(=O)[C@H](Cc1ccccc1)NC(=O)[C@@H](NC(=O)CNC(=O)[C@@H](N)CCC(=O)O)[C@@H](C)O)[C@@H](C)CC)C(=O)N[C@@H](C)C(=O)N[C@@H](CCC(=O)O)C(=O)N[C@@H](CC(=O)O)C(=O)N[C@@H](CCCCN)C(=O)N[C@H](C(=O)N[C@@H](CCCCNC(=O)CCCCCCCCCCCCCCC(=O)O)C(=O)N[C@@H](CCC(N)=O)C(=O)N[C@@H](CCC(N)=O)C(=O)N[C@@H](CC(=O)O)C(=O)N[C@@H](Cc1ccccc1)C(=O)N[C@H](C(=O)N[C@@H](CC(N)=O)C(=O)N[C@@H](Cc1c[nH]c2ccccc12)C(=O)N[C@@H](CC(C)C)C(=O)N[C@@H](CC(C)C)C(=O)N[C@@H](C)C(=O)N[C@@H](CCC(N)=O)C(=O)N[C@@H](CCCCN)C(=O)N1CCC[C@H]1C(=O)N[C@@H](CO)C(=O)N[C@@H](CO)C(=O)NCC(=O)N[C@@H](C)C(=O)N1CCC[C@H]1C(=O)N1CCC[C@H]1C(=O)N1CCC[C@H]1C(=O)N[C@@H](CO)C(=O)O)C(C)C)[C@@H](C)CC) [AT620] | 0 | 31.6 | 83 | 7.5
4 | EGTFISEYSI[Aib]MEKIK(C16 diacid)QQDFVEWLLAQKPSSGAPPPS-OH (N-terminus assumed; SMILES CC[C@H](C)[C@H](NC(=O)[C@H](CCCCN)NC(=O)[C@H](CCC(=O)O)NC(=O)[C@H](CCSC)NC(=O)C(C)(C)NC(=O)[C@@H](NC(=O)[C@H](CO)NC(=O)[C@H](Cc1ccc(O)cc1)NC(=O)[C@H](CCC(=O)O)NC(=O)[C@H](CO)NC(=O)[C@@H](NC(=O)[C@H](Cc1ccccc1)NC(=O)[C@@H](NC(=O)CNC(=O)[C@@H](N)CCC(=O)O)[C@@H](C)O)[C@@H](C)CC)[C@@H](C)CC)C(=O)N[C@@H](CCCCNC(=O)CCCCCCCCCCCCCCC(=O)O)C(=O)N[C@@H](CCC(N)=O)C(=O)N[C@@H](CCC(N)=O)C(=O)N[C@@H](CC(=O)O)C(=O)N[C@@H](Cc1ccccc1)C(=O)N[C@H](C(=O)N[C@@H](CCC(=O)O)C(=O)N[C@@H](Cc1c[nH]c2ccccc12)C(=O)N[C@@H](CC(C)C)C(=O)N[C@@H](CC(C)C)C(=O)N[C@@H](C)C(=O)N[C@@H](CCC(N)=O)C(=O)N[C@@H](CCCCN)C(=O)N1CCC[C@H]1C(=O)N[C@@H](CO)C(=O)N[C@@H](CO)C(=O)NCC(=O)N[C@@H](C)C(=O)N1CCC[C@H]1C(=O)N1CCC[C@H]1C(=O)N1CCC[C@H]1C(=O)N[C@@H](CO)C(=O)O)C(C)C) [AT616] | 0 | 0.473 | 100 | 9.3
5 | EGTFISDYSIALDKIKQQDFVNWLLAQKPSSGAPPPS (Nle at 14; K18: C16-diacid; C-term COOH) [AT619] | 0 | 2.19 | 87 | 8.7
6 | EGTFISDYSIALDKIK(C16 diacid)QQDFVNWLLAQKPSSGAPPPS-OH (N-terminus assumed; SMILES CC[C@H](C)[C@H](NC(=O)[C@H](CO)NC(=O)[C@H](Cc1ccc(O)cc1)NC(=O)[C@H](CC(=O)O)NC(=O)[C@H](CO)NC(=O)[C@@H](NC(=O)[C@H](Cc1ccccc1)NC(=O)[C@@H](NC(=O)CNC(=O)[C@@H](N)CCC(=O)O)[C@@H](C)O)[C@@H](C)CC)C(=O)N[C@@H](C)C(=O)N[C@@H](CC(C)C)C(=O)N[C@@H](CC(=O)O)C(=O)N[C@@H](CCCCN)C(=O)N[C@H](C(=O)N[C@@H](CCCCNC(=O)CCCCCCCCCCCCCCC(=O)O)C(=O)N[C@@H](CCC(N)=O)C(=O)N[C@@H](CCC(N)=O)C(=O)N[C@@H](CC(=O)O)C(=O)N[C@@H](Cc1ccccc1)C(=O)N[C@H](C(=O)N[C@@H](CC(N)=O)C(=O)N[C@@H](Cc1c[nH]c2ccccc12)C(=O)N[C@@H](CC(C)C)C(=O)N[C@@H](CC(C)C)C(=O)N[C@@H](C)C(=O)N[C@@H](CCC(N)=O)C(=O)N[C@@H](CCCCN)C(=O)N1CCC[C@H]1C(=O)N[C@@H](CO)C(=O)N[C@@H](CO)C(=O)NCC(=O)N[C@@H](C)C(=O)N1CCC[C@H]1C(=O)N1CCC[C@H]1C(=O)N1CCC[C@H]1C(=O)N[C@@H](CO)C(=O)O)C(C)C)[C@@H](C)CC) [AT618] | 0 | 3.98 | 82 | 8.4
